# Source: paper PMC4937323
# Read-outs that look alike come from different tables or passages of the source.
# B1: 20 nt Bubble DNA (mixed)
# DNA 1: CCCTAGATACCAGTAAGCCTAAGGCCGGATCTCGGGCCATCCATGTACGC
# DNA 2: GCGTACATGGATGGCTTAGAGCTTAATTCCGAATCTACTGGTATCTAGGG
# How the values were obtained:
# Aro2 [1] = target: T1, Aro2 (Homo sapiens, UniProt P27694;P15927;P35244 1-616;1-270;1-121, F269A;F386A); assay: smTIRFM
# AroA = AroA (Homo sapiens, UniProt P27694;P15927;P35244 1-616;1-270;1-121, F238A;F269A); assay: smTIRFM
# AroB = AroB (Homo sapiens, UniProt P27694;P15927;P35244 1-616;1-270;1-121, W361A;F386A); assay: smTIRFM
# Aro2 [2] = target: T1, Aro2; assay: smTIRFM; remark: listed apart in the source
# [3] = target: RPA (wild-type, biotinylated on RPA3) (Homo sapiens, UniProt P27694;P15927;P35244 1-616;1-270;1-121); assay: EMSA
# Chain of RPA (wild-type, biotinylated on RPA3) (P27694 whole entry, chain 1 of 3): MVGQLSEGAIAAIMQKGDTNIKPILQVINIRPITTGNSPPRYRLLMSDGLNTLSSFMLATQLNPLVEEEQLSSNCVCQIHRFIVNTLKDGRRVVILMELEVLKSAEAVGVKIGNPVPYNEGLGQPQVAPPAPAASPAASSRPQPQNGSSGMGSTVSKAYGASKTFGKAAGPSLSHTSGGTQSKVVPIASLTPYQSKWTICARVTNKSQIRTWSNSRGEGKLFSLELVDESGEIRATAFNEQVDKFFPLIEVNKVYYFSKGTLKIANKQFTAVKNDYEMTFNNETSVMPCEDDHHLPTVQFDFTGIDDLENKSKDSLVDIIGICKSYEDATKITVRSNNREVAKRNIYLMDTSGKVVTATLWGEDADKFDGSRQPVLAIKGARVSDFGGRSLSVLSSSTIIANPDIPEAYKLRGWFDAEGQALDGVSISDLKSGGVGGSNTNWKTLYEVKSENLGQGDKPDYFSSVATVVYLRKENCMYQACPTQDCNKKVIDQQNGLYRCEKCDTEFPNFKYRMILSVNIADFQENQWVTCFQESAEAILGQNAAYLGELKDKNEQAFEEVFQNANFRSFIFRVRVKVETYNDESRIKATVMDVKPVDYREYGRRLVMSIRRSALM
# Chain of RPA (wild-type, biotinylated on RPA3) (P15927 whole entry, chain 2 of 3): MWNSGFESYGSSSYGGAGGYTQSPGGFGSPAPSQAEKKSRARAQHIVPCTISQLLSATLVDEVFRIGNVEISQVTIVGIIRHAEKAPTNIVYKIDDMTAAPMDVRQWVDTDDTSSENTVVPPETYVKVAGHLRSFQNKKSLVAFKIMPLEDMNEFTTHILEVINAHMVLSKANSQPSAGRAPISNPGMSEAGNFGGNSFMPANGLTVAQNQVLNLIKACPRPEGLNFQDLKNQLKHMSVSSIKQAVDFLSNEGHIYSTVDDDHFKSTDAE
# Chain of RPA (wild-type, biotinylated on RPA3) (P35244 whole entry, chain 3 of 3): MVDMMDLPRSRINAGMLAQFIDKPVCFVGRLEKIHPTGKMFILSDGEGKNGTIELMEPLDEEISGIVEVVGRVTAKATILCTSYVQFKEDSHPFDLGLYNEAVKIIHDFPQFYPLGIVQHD
# T1 sequence (P27694 whole entry F269A/F386A, chain 1 of 3): as the sequence (P27694 whole entry, chain 1 of 3) above, with F269A, F386A counted along it
# T1 sequence (P15927 whole entry, chain 2 of 3): as the sequence (P15927 whole entry, chain 2 of 3) above
# T1 sequence (P35244 whole entry, chain 3 of 3): as the sequence (P35244 whole entry, chain 3 of 3) above
# Chain of AroB (P27694 whole entry W361A/F386A, chain 1 of 3): as the sequence (P27694 whole entry, chain 1 of 3) above, with W361A, F386A counted along it
# Chain of AroB (P15927 whole entry, chain 2 of 3): as the sequence (P15927 whole entry, chain 2 of 3) above
# Chain of AroB (P35244 whole entry, chain 3 of 3): as the sequence (P35244 whole entry, chain 3 of 3) above
# Chain of AroA (P27694 whole entry F238A/F269A, chain 1 of 3): as the sequence (P27694 whole entry, chain 1 of 3) above, with F238A, F269A counted along it
# Chain of AroA (P15927 whole entry, chain 2 of 3): as the sequence (P15927 whole entry, chain 2 of 3) above
# Chain of AroA (P35244 whole entry, chain 3 of 3): as the sequence (P35244 whole entry, chain 3 of 3) above
binder,measurement,setting,value
TTTTTTTTTTTTTTT (ssDNA) [dT15],binding result,Aro2 [1],no binding
same,binding result,AroA,no binding
same,binding result,AroB,no binding
TTTTTTTTTTTTTTTTTTTT (ssDNA) [dT20],binding result,Aro2 [2],binds
B1,binding result,[3],binds
